From publication PMC10445657 come the findings set out here.

This data set addresses T1, RORα S100D (human, UniProt P35398 1-523, S100D).
T1 sequence: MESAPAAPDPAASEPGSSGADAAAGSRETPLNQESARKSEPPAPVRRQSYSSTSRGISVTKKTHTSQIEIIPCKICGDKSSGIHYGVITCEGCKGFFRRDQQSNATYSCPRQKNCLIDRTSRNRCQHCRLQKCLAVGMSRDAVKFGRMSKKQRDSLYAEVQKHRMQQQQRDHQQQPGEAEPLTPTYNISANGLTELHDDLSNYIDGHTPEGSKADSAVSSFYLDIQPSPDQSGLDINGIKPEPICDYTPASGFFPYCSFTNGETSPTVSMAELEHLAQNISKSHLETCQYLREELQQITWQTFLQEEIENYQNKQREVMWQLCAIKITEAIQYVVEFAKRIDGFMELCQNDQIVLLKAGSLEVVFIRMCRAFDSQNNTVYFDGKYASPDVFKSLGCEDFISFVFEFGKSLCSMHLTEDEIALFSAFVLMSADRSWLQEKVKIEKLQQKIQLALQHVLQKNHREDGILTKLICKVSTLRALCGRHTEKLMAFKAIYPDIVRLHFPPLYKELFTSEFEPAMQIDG
Description: EMSA.

B1: HRE probe (dsDNA)
DNA 1: GATCTCGACAGTGACCCTTTTAACCAGGTCAGTGAG
DNA 2: CTCACTGACCTGGTTAAAAGGGTCACTGTCGAGATC
For the molecule B1, the binding result is given as “no binding”.

B2: RORE probe (dsDNA)
DNA 1: GATCTCGACTCGTATATCAAGGTCATGCTG
DNA 2: CAGCATGACCTTGATATACGAGTCGAGATC
As for B2, the binding result is “no binding”.
